These results are taken from publication PMC11331971 (Nature, 2023).

B1: TMPRSS2 (transmembrane-serine protease 2), wild type, on transfected 293T cells (receptor)
chain: MALNSGSPPAIGPYYENHGYQPENPYPAQPTVVPTVYEVHPAQYYPSPVPQYAPRVLTQASNPVVCTQPKSPSGTVCTSKTKKALCITLTLGTFLVGAALAAGLLWKFMGSKCSNSGIECDSSGTCINPSNWCDGVSHCPGGEDENRCVRLYGPNFILQVYSSQRKSWHPVCQDDWNENYGRAACRDMGYKNNFYSSQGIVDDSGSTSFMKLNTSAGNVDIYKKLYHSDACSSKAVVSLRCIACGVNLNSSRQSRIVGGESALPGAWPWQVSLHVQNVHVCGGSIITPEWIVTAAHCVEKPLNNPWHWTAFAGILRQSFMFYGAGYQVEKVISHPNYDSKTKNNDIALMKLQKPLTFNDLVKPVCLPNPGMMLQPEQLCWISGWGATEEKGKTSEVLNAAKVLLIETQRCNSRYVYDNLITPAMICAGFLQGNVDSCQGDSGGPLVTSKNNIWWLIGDTSWGSGCAKAYRPGVYGNVMVFTDWIYRQMRADG
B2: HKU1B receptor binding domain (residues 323-607) (domain or fragment)
chain: NLPDCDIDNWLNNVSVPSPLNWERRIFSNCNFNLSTLLRLVHVDSFSCNNLDKSKIFGSCFNSITVDKFAIPNRRRDDLQLGSSGFLQSSNYKIDISSSSCQLYYSLPLVNVTINNFNPSSWNRRYGFGSFNLSSYDVVYSDHCFSVNSDFCPCADPSVVNSCAKSKPPSAICPAGTKYRHCDLDTTLYVKNWCRCSCLPDPISTYSPNTCPQKKVVVGIGEHCPGLGINEEKCGTQLNHSSCFCSPDAFLGWSFDSCISNNRCNIFSNFIFNGINSGTTCSNDL
modifications: biotinylated with the BirA biotin-protein ligase kit for the BLI experiment with nanobodies only
B3: HKU1A receptor binding domain (residues 323-609) (domain or fragment)
chain: DLPDCDIDKWLNNFNVPSPLNWERKIFSNCNFNLSTLLRLVHTDSFSCNNFDESKIYGSCFKSIVLDKFAIPNSRRSDLQLGSSGFLQSSNYKIDTTSSSCQLYYSLPAINVTINNYNPSSWNRRYGFNNFNLSSHSVVYSRYCFSVNNTFCPCAKPSFASSCKSHKPPSASCPIGTNYRSCESTTVLDHTDWCRCSCLPDPITAYDPRSCSQKKSLVGVGEHCAGFGVDEEKCGVLDGSYNVSCLCSTDAFLGWSYDTCVSNNRCNIFSNFILNGINSGTTCSNDL
B4: HKU1B receptor binding domain with the R517A mutation (domain or fragment)
chain: NLPDCDIDNWLNNVSVPSPLNWERRIFSNCNFNLSTLLRLVHVDSFSCNNLDKSKIFGSCFNSITVDKFAIPNRRRDDLQLGSSGFLQSSNYKIDISSSSCQLYYSLPLVNVTINNFNPSSWNRRYGFGSFNLSSYDVVYSDHCFSVNSDFCPCADPSVVNSCAKSKPPSAICPAGTKYRHCDLDTTLYVKNWCACSCLPDPISTYSPNTCPQKKVVVGIGEHCPGLGINEEKCGTQLNHSSCFCSPDAFLGWSFDSCISNNRCNIFSNFIFNGINSGTTCSNDL
B5: anti-TMPRSS2 nanobody VHH-A01 (VHH)
VHH: QVQLVESGGGLVQPGGSLRLSCVVSGFSLDYYAIGWFRQAPGKEREGVSCIGSSGDKTNYADSVKGRFTISRDNAKNTVYLQMNSLKPEDTAVYYCAAESALYSDCTEEQNPMLYDYWGQGTQVTVSS
B6: anti-TMPRSS2 nanobody VHH-D01 (VHH)
VHH: EVQLVESGGGLVQPGGPLRLSCASSGSTLEHYDIGWFRQVPGGLREGVSSITASGGRTNYADSVKGRFTISRDNGKNAVYLQMNSLKPEDTAVYYCAGKIGGRRNWVAPLDGFENAYWGQGTQVTVSS
B7: anti-TMPRSS2 nanobody VHH-A07 (VHH)
VHH: QVQLVESGGGLVQPGGSLRLSCTSSGSPLEHYDIIWFRQAPGREREGVSSITTSGGHTNYADSVKDRFTISRDNAKNVVYLQMNSLKPEDTAVYYCAGRVGGRRNWIVPLDGYDNAYWGQGTQVTVSS
B8: anti-TMPRSS2 nanobody VHH-F05 (VHH)
VHH: EVQLVESGGGLVQPGGSLRLSCAASGFTLDYYAIGWFRQAPGKEREGVSCISSSGDSIKYVDSVKGRFTISRDNAKNTVYLQMNSLKPEDTAVYQCAADALGSGCLTGNYDYWGQGTRVTVSS
B9: anti-TMPRSS2 nanobody VHH-C11 (VHH)
VHH: QVQLVESGGGLVQPGGSLRLSCAASGFTLDYYDIYWFRQAPGKEREGVSSITTSGGRTNYADSVKGRFTISRDNAKNTVYLQMNSLKPEDTAVYYCAAKVGGRRNWIAPLNGYENALWGKGTLVTVSS

S441A TMPRSS2 ectodomain, soluble (human, UniProt O15393, S441A), sequence (O15393 106-492 S441A): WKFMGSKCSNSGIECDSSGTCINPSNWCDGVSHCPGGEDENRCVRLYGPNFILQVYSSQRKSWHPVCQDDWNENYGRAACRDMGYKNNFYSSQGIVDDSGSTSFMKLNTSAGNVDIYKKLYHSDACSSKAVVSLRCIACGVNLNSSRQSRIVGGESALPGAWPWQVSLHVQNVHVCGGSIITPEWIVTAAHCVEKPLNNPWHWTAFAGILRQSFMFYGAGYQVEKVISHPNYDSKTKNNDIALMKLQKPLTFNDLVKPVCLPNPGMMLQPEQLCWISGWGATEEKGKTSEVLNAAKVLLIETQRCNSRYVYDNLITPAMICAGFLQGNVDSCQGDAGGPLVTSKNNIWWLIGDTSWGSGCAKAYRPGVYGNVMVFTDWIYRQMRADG

The first assay has as its target dimeric anti-TMPRSS2 VHH-A01-Fc (alpaca (Lama pacos)). As to the kind of experiment: flow cytometry on cells.
With B1, the binding result was “binds”.

The target in a further assay is T1, S441A TMPRSS2 ectodomain, soluble (human, UniProt O15393 106-492, S441A). The assay is described as follows: BLI. (BLI is a label-free optical method that tracks binding on a fibre tip over time.)
Turning to B2, binding was characterised by a dissociation constant (Kd) of 131 nM.

For a further assay, the target named is T1, S441A TMPRSS2 ectodomain, soluble. The assay is described as follows: BLI. The source holds these as a separate data set.
Consider B3, for which the equilibrium dissociation constant (Kd) – broadly, the equilibrium constant for the complex coming apart – is 334 ± 66.2 nM.

On to B2, for which the dissociation constant (Kd) amounted to 137 ± 20.8 nM. The same measure, in the same setting: in the case of B4 it was 376 ± 96.4 nM.

Another assay has as its target S441A TMPRSS2 ectodomain, soluble (human, UniProt O15393, S441A). As to the kind of experiment: BLI.
With B5, the affinity, expressed as Kd, was 0.78 nM and the koff (usually the rate constant with which the complex falls apart) is 5.1e-05 s⁻¹. Consider B6, for which binding was put at a Kd of 6 nM and the off-rate constant (koff) stood at 0.00048 s⁻¹.

The molecule B7 gave a dissociation constant Kd of 13.3 nM and an off-rate (koff) of 0.0011 s⁻¹. As for B8, the dissociation constant Kd came to 2.6 nM and the off-rate (koff) was found to be 0.00019 s⁻¹. The corresponding values for B9 are 32.5 nM and 0.00023 s⁻¹.
